From publication PMC2975540 (Science (New York, N.Y.), 2009)
Changes are numbered by the printed parent chain.

Assays:
[1] = molecular target: T1, Nop5mut4 (D135A, L143K, V217E, E224A) (Methanocaldococcus jannaschii, UniProt Q58105 1-414, D135A | L143K | V217E | E224A); assay: co-sedimentation
T1 sequence (looked up): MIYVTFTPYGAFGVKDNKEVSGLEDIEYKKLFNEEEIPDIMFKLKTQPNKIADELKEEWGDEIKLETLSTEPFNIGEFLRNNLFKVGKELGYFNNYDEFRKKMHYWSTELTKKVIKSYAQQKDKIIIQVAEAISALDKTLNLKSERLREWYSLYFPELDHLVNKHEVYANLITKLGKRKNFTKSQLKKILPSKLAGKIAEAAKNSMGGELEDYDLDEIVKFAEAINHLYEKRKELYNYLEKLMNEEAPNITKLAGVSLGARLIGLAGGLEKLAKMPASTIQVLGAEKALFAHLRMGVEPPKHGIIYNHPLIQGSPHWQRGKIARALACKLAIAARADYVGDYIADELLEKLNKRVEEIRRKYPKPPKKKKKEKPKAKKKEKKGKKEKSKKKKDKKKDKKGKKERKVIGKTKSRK

Nop5mut2 (L143K, V217E) = molecular target: T2, Nop5mut2 (L143K, V217E) (Methanocaldococcus jannaschii, UniProt Q58105 1-414, L143K | V217E); assay: co-sedimentation
T2 sequence (looked up): T1 sequence (looked up) with A135D, A224E

[2] = molecular target: T3, Methanocaldococcus jannaschii Nop5 (Methanocaldococcus jannaschii, UniProt Q58105 1-414); assay: quantitative amino acid analysis
T3 sequence (looked up): T1 sequence (looked up) with A135D, K143L, E217V, A224E

binding result [1]: binds | binding result (Nop5mut2 (L143K, V217E)): binds | stoichiometry N [2]: 1
B1: Methanocaldococcus jannaschii fibrillarin (enzyme, UniProt Q58108 1-230, looked up)
chain: MEDIKIKEIFENIYEVDLGDGLKRIATKSIVKGKKVYDEKIIKIGDEEYRIWNPNKSKLAAAIIKGLKVMPIKRDSKILYLGASAGTTPSHVADIADKGIVYAIEYAPRIMRELLDACAERENIIPILGDANKPQEYANIVEKVDVIYEDVAQPNQAEILIKNAKWFLKKGGYGMIAIKARSIDVTKDPKEIFKEQKEILEAGGFKIVDEVDIEPFEKDHVMFVGIWEGK
